Assay [1] has as its target T1, VEGF (UniProt P15692-4 27-191, limits assumed).
T1 construct: Negative control protein; also called negative control protein VEGF
Kind of assay: phage binding assay on proteins coated onto microtiter wells.

The target in assay [2] is T2, bovine serum albumin (BSA) (bovine, UniProt P02769 25-607).
T2 construct: Negative control protein
Kind of assay: phage binding assay on immobilized proteins.

Assay [3] concerns the target T3, transforming growth factor alpha (TGF-α) (UniProt P01135 40-89).
T3 construct: Bought; also called Tumor Growth Factor alpha
The experiment in a line: phage binding assay on proteins coated onto microtiter wells.

Assay [4] addresses T4, epidermal growth factor (EGF) (UniProt P01133 971-1023).
T4 construct: Bought
The description is as above.

Ends that are not written are not given here.

T1 sequence (P15692 other isoform, or with tags, fused parts or gaps limits assumed): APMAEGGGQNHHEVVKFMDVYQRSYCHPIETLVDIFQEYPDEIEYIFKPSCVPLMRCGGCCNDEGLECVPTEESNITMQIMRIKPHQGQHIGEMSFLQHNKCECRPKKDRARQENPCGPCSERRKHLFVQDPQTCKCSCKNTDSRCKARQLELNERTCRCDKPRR
T4 sequence (P01133 971-1023 limits assumed): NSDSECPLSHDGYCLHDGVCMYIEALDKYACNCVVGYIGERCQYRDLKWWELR
T2 sequence (P02769 25-607 limits assumed): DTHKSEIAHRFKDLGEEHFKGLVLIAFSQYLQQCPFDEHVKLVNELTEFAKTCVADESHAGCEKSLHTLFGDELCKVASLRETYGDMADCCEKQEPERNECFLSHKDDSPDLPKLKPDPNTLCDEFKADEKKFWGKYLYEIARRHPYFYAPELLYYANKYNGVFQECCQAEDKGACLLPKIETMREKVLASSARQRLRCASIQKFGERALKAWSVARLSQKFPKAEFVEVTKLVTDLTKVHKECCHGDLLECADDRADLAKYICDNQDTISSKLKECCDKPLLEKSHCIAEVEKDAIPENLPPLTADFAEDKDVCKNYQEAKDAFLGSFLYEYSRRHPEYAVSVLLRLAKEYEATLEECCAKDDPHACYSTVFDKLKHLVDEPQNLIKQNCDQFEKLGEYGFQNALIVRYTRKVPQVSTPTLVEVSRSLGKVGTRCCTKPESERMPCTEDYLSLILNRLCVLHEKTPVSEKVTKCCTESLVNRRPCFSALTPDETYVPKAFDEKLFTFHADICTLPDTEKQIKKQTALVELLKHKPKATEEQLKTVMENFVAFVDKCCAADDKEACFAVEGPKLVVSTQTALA

B1: CVRAC-displaying phage (peptide)
peptide: CVRAC
modifications: not fully specified (bridges); also: cyclic, ring type not given here, displayed on phage
notes: the phage coat protein that carries the insert is not described; also called CVRAC-phage; phage displaying the cyclic peptide CVRAC
Turning to B1, the binding result in assay [1] and in assay [2] was “no binding” throughout.

B2: CVAAC-displaying phage (peptide)
peptide: CVAAC
modifications: not fully specified (bridges); also: cyclic, ring type not given here, displayed on phage
notes: coat protein fusion not described; also called CVAAC-phage; alanine scanning control
As to B2, the binding result in assay [3] and in assay [4] was “no binding” in each case.
